From patent CN114057887A

Target: RBD-His (近岸生物货号:DRA42) (SARS-CoV-2) (UniProt P0DTC2)

## hACE2-Fc融合蛋白 (人ACE2胞外区(ECD)与人IgG1的Fc片段的融合蛋白) (Fc fusion)
  亲和力: 0.54 nM
